Reference: the supplement of paper PMC9732359
± gives the uncertainty stated by the source.

Assay: protein stability index of a GFP-peptide fusion (yeast GPS) (PSI 1-4); higher = more stable; sorted into four equal gates, so the index is relative within each strain
Procedure, shortened: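 Peptides tiling yeast proteins in 17-residue segments were fused downstream of GFP, with Cherry expressed from the same plasmid. As a pooled library in yeast, mid-log cultures grown in leucine-free medium were sorted into four equal gates by GFP/Cherry fluorescence ratio. Gate plasmids were PCR-amplified and Illumina-sequenced, and barcodes linked reads to strains. Each peptide received a protein stability index equal to the sum of each gate's read frequency times its gate number.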

Sequence | protein stability index (doa10∆) | protein stability index (pdr5∆) | protein stability index (san1∆) | protein stability index (ubr1∆)
IEATDLGNIASSFYINH [BRR2] | 3 ± 0.085 | 3.04 ± 0.1 | 3.12 ± 0.078 | 3.3 ± 0.072
IEDLWQFLYEKHYKNIP [RPC82] | 2.23 ± 0.088 | 1.53 ± 0.078 | 1.62 ± 0.19 | 2.1 ± 0.071
IEIDYTVRVDKASTYGE [SNF12] | 1.68 ± 0.08 | 1.41 ± 0.067 | 1.53 ± 0.16 | 1.39 ± 0.04
IELDQVLNMLYWVPDWD [RPO21] | 2.84 ± 0.095 | 2.32 ± 0.068 | 2.17 ± 0.11 | 2.51 ± 0.057
IELLSLDDDSIVNHEQD [SRB4] | 2.9 ± 0.1 | 3.19 ± 0.089 | 3.4 ± 0.083 | 3.12 ± 0.088
IELVVTEKEEAVAKAAE [RPL17A] | 3.41 ± 0.064 | 3.33 ± 0.05 | 3.27 ± 0.04 | 3.25 ± 0.047
IEQGIPKHSYLSGNPLT [SIR4] | 2.86 ± 0.07 | 2.88 ± 0.076 | 3.13 ± 0.17 | 2.96 ± 0.061
IFEAISLSDELNLDEIV [YJL039C/NUP192] | 2.76 ± 0.067 | 2.73 ± 0.064 | 2.72 ± 0.042 | 2.87 ± 0.054
IFEKELMYQIKKECALL [SRB4] | 2.87 ± 0.28 | 3.2 ± 0.21 | 2.61 ± 0.26 | 3.44 ± 0.19
IFISSDHEFVLISLIMT [YMR129W/POM152] | 1.3 ± 0.13 | 1.24 ± 0.071 | 2.01 ± 0.16 | 1.61 ± 0.29
IFKDKEKLVSDLRLIKV [SMC1] | 3.25 ± 0.26 | 3.23 ± 0.089 | 3.31 ± 0.21 | 3.44 ± 0.15
IFNDILAHVDQIVDIRN [YJL039C/NUP192] | 2.83 ± 0.1 | 2.64 ± 0.18 | 2.97 ± 0.082 | 2.9 ± 0.076
IFNFDQLVEITEQIKMR [SRB8] | 1.59 ± 0.1 | 1.6 ± 0.082 | 1.66 ± 0.14 | 1.48 ± 0.057
IFSLLTGYPDEPPAGVA [CYT1] | 2.87 ± 0.18 | 2.52 ± 0.14 | 2.4 ± 0.13 | 2.54 ± 0.09
IGIDPPRGVLLYGPPGT [RPT3] | 3.04 ± 0.088 | 2.58 ± 0.1 | 2.89 ± 0.081 | 2.74 ± 0.073
IGIMASDGIVLAAERKV [PRE9] | 2.79 ± 0.29 | – | 3.37 ± 0.15 | –
IGQLMAFDKHMNLVLNE [SMB1] | 2.04 ± 0.15 | 2.39 ± 0.2 | 2.72 ± 0.16 | 2.57 ± 0.051
IGSGAMSPLECRNILGV [RPP1] | 1.93 ± 0.03 | 2.43 ± 0.046 | 2.19 ± 0.064 | 2.38 ± 0.034
IGTGEHIHDLEKFSPKS [SRP54] | 2.33 ± 0.067 | 2.43 ± 0.053 | 2.9 ± 0.053 | 2.03 ± 0.042
IGTHHAGLTRSDRSLSE [BRR2] | 2.2 ± 0.11 | 2.05 ± 0.2 | 1.47 ± 0.14 | 2.62 ± 0.07
IGVRCYEAYPNTSLPPS [FAS1] | 2.29 ± 0.036 | 2.33 ± 0.032 | 2.59 ± 0.034 | 2.54 ± 0.028
IHIDALELAGMDALYEK [SIR3] | 2.97 ± 0.1 | 3.04 ± 0.098 | 2.71 ± 0.07 | 2.93 ± 0.079

Sequence | protein stability index (doa10∆) | protein stability index (pdr5∆) | protein stability index (san1∆) | protein stability index (ubr1∆)
IHKQIVIEMKRCFENLQ [UBP6] | 2.75 ± 0.097 | 2.13 ± 0.093 | 3.1 ± 0.064 | 2.87 ± 0.1
IHPIPSVTVSQGNYVTE [YMR129W/POM152] | 2.21 ± 0.055 | 2.6 ± 0.066 | 2.58 ± 0.073 | 2.43 ± 0.043
IHQILLPTNPTLDKPNA [CSE2] | 2.56 ± 0.039 | 2.58 ± 0.041 | 2.37 ± 0.044 | 2.42 ± 0.034
IIDGPKALILAPTRELV [PRP28] | 1.59 ± 0.062 | 2.32 ± 0.053 | 1.89 ± 0.1 | 1.68 ± 0.052
IIDVGTHHTDIIPIVDY [ARP9] | 2.41 ± 0.088 | 2.48 ± 0.056 | 2.5 ± 0.056 | 2.59 ± 0.036
IIHVLTTMFENTGWSCS [RGR1] | 2.16 ± 0.054 | 2.33 ± 0.077 | 2.7 ± 0.077 | 2.73 ± 0.044
IIKANQLILSDVDPEFY [RET1] | 1.51 ± 0.094 | 1.76 ± 0.081 | 1.6 ± 0.11 | 1.96 ± 0.081
IIKERALLSKVKWVHMI [SNF2] | 1.37 ± 0.059 | 1.23 ± 0.061 | 1.34 ± 0.088 | 1.18 ± 0.042
IILHFANFGEILEDFRV [YMR153W/NUP53] | 2.7 ± 0.1 | 2.65 ± 0.084 | 2.85 ± 0.062 | 2.85 ± 0.16
IIPIVDYAQLDHLVSSI [ARP9] | 2.13 ± 0.05 | 2.48 ± 0.051 | 2.34 ± 0.053 | 2.38 ± 0.039
IIQGRKNFDMLNSMEKD [PCI8] | 2.63 ± 0.083 | 2.77 ± 0.074 | 2.95 ± 0.046 | 2.71 ± 0.047
IIQNAQRDAVTLFCCLL [RPO21] | 2.88 ± 0.053 | 2.54 ± 0.055 | 2.53 ± 0.051 | 2.44 ± 0.046
IIRLLPINLENNDGSYG [SRB8] | 1.7 ± 0.064 | 1.24 ± 0.048 | 1.21 ± 0.077 | 1.39 ± 0.048
IIVAGYDDKNKGEVYTI [PRE3] | 3 ± 0.083 | 3.12 ± 0.096 | 3.42 ± 0.089 | 3.45 ± 0.098
IIVQYLTKFRQKLMQLV [RGR1] | 2.65 ± 0.089 | 2.88 ± 0.16 | 2.56 ± 0.083 | 2.46 ± 0.1
IKEDIKKQPSILVGGTL [SNF2] | 1.93 ± 0.084 | 2.15 ± 0.12 | 2.92 ± 0.12 | 3.27 ± 0.14
IKEELTKLIISGQLNFE [PCI8] | 3.29 ± 0.15 | 3.19 ± 0.15 | 2.54 ± 0.26 | 2.99 ± 0.088
IKFGGLIIQKIPSLQNN [ECM29] | 1.83 ± 0.066 | 1.72 ± 0.066 | 1.5 ± 0.064 | 1.83 ± 0.062
IKFKKCDGDTVWDKFAV [SSN2] | 3 ± 0.052 | 3.03 ± 0.048 | 2.87 ± 0.046 | 2.75 ± 0.046
IKFLLTFIDKERHQKQL [YCS4] | 1.7 ± 0.18 | – | 1.58 ± 0.27 | –
IKLNGSTLLCTDLESKS [SNU114] | 2.67 ± 0.06 | 2.73 ± 0.058 | 2.54 ± 0.056 | 2.82 ± 0.063
IKMQRQFSQLNDPNAAV [MED6] | 3.01 ± 0.07 | 3.04 ± 0.059 | 3.09 ± 0.06 | 3.16 ± 0.059
